Source: publication PMC8079448, “Structure of the SWI/SNF complex bound to the nucleosome and insights into the functional modularity” (Cell Discovery, 2021)

B1: Swp82 (natural protein, yeast)
chain: MLGEDEGNTVLEKGNNPSVKQGEVGAVFIVPKILIREHERVILKQILQILDQDELVQPPLDKFPYKKLELPKYIDELKTRDATNTSYKMIQLDAYGEKKVGSNGELFGGRHYLFNTFTFTAHMGVLLVLLQDVIKVLYQSNATHDEDEFIVQHDQILVMETSEEQTKFLAKNGVIPEESKGSFKYITARSAFVEFGASVIAGGQRIVDDYWESLAKKQNLSSHQRVFKLSTNLISKISLLRPSFQNNRISNANEISANTNNTCTISTSKFESQYPIVTEQPSAEIREAYIENFAKGEHISAIVPGQSISGTLELSAQFRVPRYHSKNSFQQALQMKAMDIPIGRHEELLAQYESQAPDGSASISLPNHIPSVNPSNKPIKRMLSSILDINVSSSKNKKSEENEMIKPMNKGQHKNNTSLNINGWKFESLPLKSAENSGKQQYYRGLPLYEKNTLLERLKQLTPNEIKELEHLHDAVFVNTGLQNVRKVRTKKWKKYWQYKAGIPIGLKRSQLDEFKNKYLKDVLAQTSVTTNFNEITNTDETITTKRVPNPNFLGNCNIKDFKPPYIYSHVNKVPQNVAGDKTAVKLDTEVKNTNANPVVATDPVAAKPDNLANFSNEVAMNN
notes: Swp82, yeast; source: overexpressed in E. coli (modified EcoExpress system), in the reconstituted complex
B2: Swi3 (natural protein, yeast)
chain: MENTLGEGSTVNASVDVDQHGNDNNSDSNANAAVAGVANTDTAGEESQQQDESLKDEATVPNTRDAESEAITVTAKQQPTMQANKLDSQETPSTEESRAQNVFGQDNEDSDNLFGETESSVSNNEANTPSIPTNPVDNENNKPAIKEDSTIQDSNGDVKNMEDVKIQKEEEPENNTVIEGVKEESQPDENTKEMDEVEEDDEDDDQPMISPDNSIFGDTKSESKQLGNTSSVANTPSEIPDAHKAEQEDIIEKTESVDKKVDSGEERNEQEREIMNDHSKSANPKKTTITRVEPETFEIPQAHEIVIPSYSKWFNLEKIHSIEVQSLPEFFTNRIPSKTPEVYMRYRNFMVNSYRLNPNEYFSVTTARRNVSGDAAALFRLHKFLTKWGLINYQVDSKLLPKNIEPPLTSQYSTRHDAPRGLFPFESYKPSVQLPDMAKLKKMMNTSDSESTLYKYLKESKRKYDEITHPPSTTDDENGDKNDNGGKMNNEVSTSTSMTGDANLLEEGETSRPLKKVKILEQIDENWSKEDLQKLLKGIQEFGADWYKVAKNVGNKSPEQCILRFLQLPIEDKFLYGDGNGKGDNDNGLGPLKYAPHLPFSKSENPVLSTIAFLVGLVNPKTVQSMTQRAIQSAESIKSQKEEISDQKPIEHIKEGSEIAISSLGYRSHIFATNEERQMNFLTNELIRLQMEKLDAKLNHLKKLEKFMELERKTLERQQENLLIQRLNFNQNSSKIVNVLSKCLNLISDSNINNSSVAEKEEIRSQIDHFKSMLSKPETLSIGKNPFNKPNIETGENHNGQSISNENDVKPISIEAPQFYRYWSA
notes: Swi3, yeast; source: overexpressed in E. coli (modified EcoExpress system), in the reconstituted complex

Target: T1, Snf5 (wild type, subunit of the recombinant SWI/SNF complex) (yeast, UniProt P18480 1-905)
T1 construct: Snf5, yeast, wild type; also called WT; source: overexpressed in E. coli (modified EcoExpress system), in the reconstituted complex
T1 sequence (P18480 whole entry, one chain of several): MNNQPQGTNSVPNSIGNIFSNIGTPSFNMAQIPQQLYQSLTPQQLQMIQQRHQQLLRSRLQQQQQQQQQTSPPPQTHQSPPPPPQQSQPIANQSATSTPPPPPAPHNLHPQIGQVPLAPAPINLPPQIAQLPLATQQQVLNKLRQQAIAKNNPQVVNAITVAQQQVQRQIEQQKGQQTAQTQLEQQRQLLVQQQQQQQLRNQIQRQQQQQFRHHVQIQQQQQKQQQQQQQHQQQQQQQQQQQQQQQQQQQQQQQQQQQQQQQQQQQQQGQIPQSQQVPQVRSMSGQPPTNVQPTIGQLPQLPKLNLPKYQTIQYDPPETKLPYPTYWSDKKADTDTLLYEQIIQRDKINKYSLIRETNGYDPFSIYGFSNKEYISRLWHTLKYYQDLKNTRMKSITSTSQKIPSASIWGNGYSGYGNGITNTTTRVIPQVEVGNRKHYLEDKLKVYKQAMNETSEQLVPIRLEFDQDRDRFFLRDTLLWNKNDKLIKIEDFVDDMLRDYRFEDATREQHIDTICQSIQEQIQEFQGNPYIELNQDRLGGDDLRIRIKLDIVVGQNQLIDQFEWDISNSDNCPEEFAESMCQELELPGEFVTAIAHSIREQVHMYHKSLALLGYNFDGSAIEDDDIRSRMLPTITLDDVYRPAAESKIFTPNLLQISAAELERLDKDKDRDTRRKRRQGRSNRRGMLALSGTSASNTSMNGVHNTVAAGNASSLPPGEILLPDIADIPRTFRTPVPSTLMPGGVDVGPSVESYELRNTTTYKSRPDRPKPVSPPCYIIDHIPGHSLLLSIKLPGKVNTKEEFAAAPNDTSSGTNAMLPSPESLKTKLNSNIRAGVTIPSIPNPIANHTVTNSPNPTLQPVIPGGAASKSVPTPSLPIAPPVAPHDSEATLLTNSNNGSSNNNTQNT
Experiment: cryo-EM structure; recombinant yeast SWI/SNF complex in complex with the mononucleosome; overall resolution 6.9 Å, local 3.1 Å at the nucleosome bound with the FH of Snf5, local 3.6 Å at the SRM
Conditions: both partners purified

| Binder | binding result |
| --- | --- |
| B1 | binds |
| B2 | binds |
